Here are results for 8 molecules from patent US20030224375A1, “Assays for evaluating the function of rna helicases” (priority 2002, published 2003).

Series [1] addresses NPH-II (DExH RNA helicase) (Vaccinia virus) (UniProt P12927). Briefly: EMSA. For orientation: Mobility shift assays separate free from complexed probe on a gel.
Series [2] concerns RNA substrate containing the U1A binding site from the 3′-untranslated region (UTR) of U1A mRNA. Briefly: U1A dissociation (off-rate) from RNA substrate, gel-shift with U1A trap. The protocol: (§1) FIG. 3. Active displacement of U1A by NPH-II. Dissociation experiments were conducted with 1 nM RNA substrate and 10 nM U1A in a buffer of 40 mM Tris/HCl (pH 8.0), 4 mM MgCl2 at 23° C. (final volume, 40 μL)- Reactions were performed as described in FIG. 2, except that they were initiated by addition of ATP (3.5 mM final concentration) and U1A trap (200 nM final concentration (16)), as indicated. Aliquots (6 μL) were withdrawn at 0, 1, 4, 8, 12, and 20 minutes, mixed with 2 μL of 100 mM EDTA and 2.5 μM NPH-II trap (which serves to capture dissociated NPH-II (16)) in 30% glycerol. Each aliquot was then loaded immediately on a 8% native polyacrylamide gel, which was run at 4° C. at 10V/cm. Bands were visualized by PhosphorImager. U1A-bound and free RNA as well as unwound and duplex RNA species are indicated by the cartoons at left (D: bound U1A dimer, M: bound U1A monomer, F: U1A free duplex substrate, U: unwound substrate). A. Release of U1A upon addition of ATP (initiated by adding ATP together with U1A trap). B. Release of U1A upon addition of NPH-II without ATP (initiated by adding only U1A trap). C. Release of U1A in the presence of ATP and NPH-II (initiated by adding ATP together with U1A trap) D. Trapping control: U1A trap is added together with RNA substrate to assess trapping efficiency. Aliquots were removed and treated as described above. E-H. Same reactions as above, but with blunt-end control duplex.
The off-rate for U1A was measured by saturating the substrate with U1A and, after complex formation, adding a large excess of RNA that contains another high-affinity U1A binding site (15). This prevented U1A from re-binding the substrate once it detached and enabled us to monitor the rate of U1A release by gel-shift electrophoresis (FIG. 3).

Series [3] has the same test system. As to conditions: previously shown; cited from earlier work.
Series [4] addresses U1A (N-terminal RNP domain, residues 1-117) (UniProt P09012). Description: EMSA.
In series [5] the target is U1A (N-terminal RNP domain, residues 1-117) (UniProt P09012 P09012:1-117). Description: competition; used at 200 nM to trap dissociated U1A. As to conditions: chain copies: 2 (stated, dimer; monomer also seen); hairpin. The protocol: as §1, with “MgCl₂” for “MgCl2”, “E-H. Same reactions as above, but with blunt-end control duplex.” left out
Another series deals with DNA. The following applies: cited from earlier work.

For the molecule “multi-piece substrates (nicked top strand)”, the activity in series [1] (both pieces displaced, 3.3±0.5, Mg2+, trap RNA, 3'-to-5' directionality) worked out at 3.3 min⁻¹.

Turning to “U1A: RNA-binding protein with N-terminal RNP domain, constituent of the spliceosomal machinery”, the “U1A binding to substrate and control RNA” value in series [2] (gel shift, 1 nM RNA, 10 nM U1A) is given as “high affinity”. Further, in series [2] (without NPH-II (and ATP)), the “off-rate koff of U1A” value was ~10^−2 min^−1. Also, the “U1A dissociates from the substrate” value in series [2] (without NPH-II, within 20 minutes) is recorded as “roughly 15%”. Besides, in series [3], the “affinity of extended two-piece substrate for U1A binding” value was “subnanomolar affinity”.

For orientation: koff means a measure of how fast the partners let go of each other. For “U1A 3'UTR binding site helicase substrate with 24-nt 3' overhang (AN22U-3')”, the koff in series [4] (40 mM Tris pH 8.0, 4 mM MgCl2, 23 C, U1A trap, no NPH-II, high affinity binding at 10 nM U1A) was found to be 0.000167 s⁻¹. Besides, the activity in series [1] (unwinding rate constant without U1A, 3.5 mM ATP, 4 mM MgCl2, pH 8.0, room temperature, with U1A k1 3.52 min-1) was found to be 3.5 min⁻¹.

With “blunt-end U1A binding site control duplex”, the off-rate (koff) in series [4] (off-rate similar to overhang substrate, not increased by NPH-II plus ATP) turned out to be 0.000167 s⁻¹.

Turning to “83 bp duplex substrate LS83 with 3' overhang”, the activity in series [1] (unwinding rate constant 3.5±0.2 independent of duplex length, lower amplitude with trap RNA, Mg2+, 3.5 mM ATP) was found to be 3.5 min⁻¹.

As to “36 bp duplex substrate LS36 with 3' overhang”, the activity in series [1] (unwinding rate constant 3.5±0.2 independent of duplex length, Mg2+, 3.5 mM ATP) was determined as 3.5 min⁻¹.

B1: U1A trap (U1 snRNA hairpin) (ssRNA)
RNA: GGAGAACCAUUGCACUCCGGUUCUUC
For B1, in series [5], the binding result is reported as “binds”.

B2: UvrD DNA helicase: DNA helicase cited for comparison of unwinding step size (Ali and Lohmann, 1997) (protein, UniProt P03018 1-720, looked up)
DNA helicase II: MDVSYLLDSLNDKQREAVAAPRSNLLVLAGAGSGKTRVLVHRIAWLMSVENCSPYSIMAVTFTNKAAAEMRHRIGQLMGTSQGGMWVGTFHGLAHRLLRAHHMDANLPQDFQILDSEDQLRLLKRLIKAMNLDEKQWPPRQAMWYINSQKDEGLRPHHIQSYGNPVEQTWQKVYQAYQEACDRAGLVDFAELLLRAHELWLNKPHILQHYRERFTNILVDEFQDTNNIQYAWIRLLAGDTGKVMIVGDDDQSIYGWRGAQVENIQRFLNDFPGAETIRLEQNYRSTSNILSAANALIENNNGRLGKKLWTDGADGEPISLYCAFNELDEARFVVNRIKTWQDNGGALAECAILYRSNAQSRVLEEALLQASMPYRIYGGMRFFERQEIKDALSYLRLIANRNDDAAFERVVNTPTRGIGDRTLDVVRQTSRDRQLTLWQACRELLQEKALAGRAASALQRFMELIDALAQETADMPLHVQTDRVIKDSGLRTMYEQEKGEKGQTRIENLEELVTATRQFSYNEEDEDLMPLQAFLSHAALEAGEGQADTWQDAVQLMTLHSAKGLEFPQVFIVGMEEGMFPSQMSLDEGGRLEEERRLAYVGVTRAMQKLTLTYAETRRLYGKEVYHRPSRFIGELPEECVEEVRLRATVSRPVSHQRMGTPMVENDSGYKLGQRVRHAKFGEGTIVNMEGSGEHSRLQVAFQGQGIKWLVAAYARLESV
With B2, the unwinding step size with DNA is given as 4-5 bp.
